# Experimental data from patent US20130143793A1 (ZEALAND PHARMA A S, published 2013).
# Where a chain is given by its changes, count along the chain named. Bridge positions count the residues as written; N and C are the ends. Square brackets hold non-standard residues; d marks the D form. Ends that are not written are not given here. Orn = NCCC[C@H](N)C(=O)O
# T1: human CCK-B receptor (human, UniProt P32239 1-447)
# T1 sequence (looked up): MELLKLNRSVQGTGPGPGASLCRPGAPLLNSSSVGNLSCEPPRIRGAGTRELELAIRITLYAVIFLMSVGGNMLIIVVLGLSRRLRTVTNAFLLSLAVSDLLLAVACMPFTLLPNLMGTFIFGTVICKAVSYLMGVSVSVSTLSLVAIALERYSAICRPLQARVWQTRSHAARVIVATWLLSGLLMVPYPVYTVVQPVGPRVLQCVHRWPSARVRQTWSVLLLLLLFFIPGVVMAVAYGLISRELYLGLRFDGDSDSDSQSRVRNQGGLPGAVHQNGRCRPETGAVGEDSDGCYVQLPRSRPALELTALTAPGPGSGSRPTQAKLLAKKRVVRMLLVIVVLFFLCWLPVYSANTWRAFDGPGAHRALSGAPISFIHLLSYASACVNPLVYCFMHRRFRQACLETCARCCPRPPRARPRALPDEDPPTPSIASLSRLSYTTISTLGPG
# B1: [Glu9,Leu14,Phe25,Tyr13]Exendin-4(1-27)-Orn-Orn-[Leu2]Gastrin4 (peptide)
# peptide: HGEGTFTSELSKYLEEEAVRLFIEFLK[Orn][Orn]WLDF-NH2
# modifications: N-terminus assumed
# SMILES: CC[C@H](C)[C@H](NC(=O)[C@H](Cc1ccccc1)NC(=O)[C@H](CC(C)C)NC(=O)[C@H](CCCNC(=N)N)NC(=O)[C@@H](NC(=O)[C@H](C)NC(=O)[C@H](CCC(=O)O)NC(=O)[C@H](CCC(=O)O)NC(=O)[C@H](CCC(=O)O)NC(=O)[C@H](CC(C)C)NC(=O)[C@H](Cc1ccc(O)cc1)NC(=O)[C@H](CCCCN)NC(=O)[C@H](CO)NC(=O)[C@H](CC(C)C)NC(=O)[C@H](CCC(=O)O)NC(=O)[C@H](CO)NC(=O)[C@@H](NC(=O)[C@H](Cc1ccccc1)NC(=O)[C@@H](NC(=O)CNC(=O)[C@H](CCC(=O)O)NC(=O)CNC(=O)[C@@H](N)Cc1c[nH]cn1)[C@@H](C)O)[C@@H](C)O)C(C)C)C(=O)N[C@@H](CCC(=O)O)C(=O)N[C@@H](Cc1ccccc1)C(=O)N[C@@H](CC(C)C)C(=O)N[C@@H](CCCCN)C(=O)N[C@@H](CCCN)C(=O)N[C@@H](CCCN)C(=O)N[C@@H](Cc1c[nH]c2ccccc12)C(=O)N[C@@H](CC(C)C)C(=O)N[C@@H](CC(=O)O)C(=O)N[C@@H](Cc1ccccc1)C(N)=O
# B2: [Orn20]Exendin-4(1-28)-Peg3-Peg3-[Leu4]Gastrin6 (peptide)
# peptide: HGEGTFTSDLSKQMEEEAV[Orn]LFIEWLKN[Peg3][Peg3]YGWLDF-NH2
# B3: Exendin-4(1-27)-[Leu4]Gastrin11 (peptide)
# peptide: HGEGTFTSDLSKQMEEEAVRLFIEWLKEEEEAYGWLDF
# modifications: C-terminal amide
# B4: Exendin-4(1-28)-[Thr4]Gastrin6 (peptide)
# peptide: HGEGTFTSDLSKQMEEEAVRLFIEWLKNYGWTDF
# modifications: C-terminal amide
# B5: Exendin-4(1-28)-[Leu4]Gastrin6 (peptide)
# peptide: B4 peptide with T32L
# modifications: C-terminal amide
# B6: [Leu14]Exendin-4(1-28)-[Nle4]Gastrin6 (peptide)
# peptide: B4 peptide with M14L, T32X
# modifications: Nle at position 4 of the Gastrin6 moiety; C-terminal amide
# B7: [Leu14]Exendin-4(1-28)-[1Nal3,Leu4]Gastrin6 (peptide)
# peptide: B4 peptide with M14L, W31X, T32L
# modifications: 1Nal (1-naphthylalanine) at position 3 of the Gastrin6 moiety; C-terminal amide
# B8: Exendin-4(1-28)-[Phe4]Gastrin6 (peptide)
# peptide: B4 peptide with T32F
# modifications: C-terminal amide
# B9: [Glu9,Leu14,Phe25,Tyr13]Exendin-4(1-27)-Orn-Peg3-[Leu2]Gastrin4 (peptide)
# peptide: HGEGTFTSELSKYLEEEAVRLFIEFLK[Orn][Peg3]WLDF-NH2
# B10: [Glu9,Leu14,Phe25,Tyr13]Exendin-4(1-27)-Peg3-Orn-[Leu4]Gastrin6 (peptide)
# peptide: HGEGTFTSELSKYLEEEAVRLFIEFLK[Peg3][Orn]YGWLDF-NH2
# B11: [Arg27,Leu14,Phe25,Tyr13]Exendin-4(1-27)-Peg3-[Leu4]Gastrin6 (peptide)
# peptide: HGEGTFTSDLSKYLEEEAVRLFIEFLR[Peg3]YGWLDF-NH2
# B12: [Glu9,Leu14,Phe25,Tyr13]Exendin-4(1-27)-Orn-Peg3-[Leu4]Gastrin6 (peptide)
# peptide: HGEGTFTSELSKYLEEEAVRLFIEFLK[Orn][Peg3]YGWLDF-NH2
# B13: [Glu9,Leu14,Phe25,Tyr13]Exendin-4(1-27)-Peg3-Orn-[Leu2]Gastrin4 (peptide)
# peptide: HGEGTFTSELSKYLEEEAVRLFIEFLK[Peg3][Orn]WLDF-NH2
# B14: [Glu9,Leu14,Phe25,Tyr13]Exendin-4(1-27)-Peg3-Peg3-[Leu4]Gastrin6 (peptide)
# peptide: HGEGTFTSELSKYLEEEAVRLFIEFLK[Peg3][Peg3]YGWLDF-NH2
# B15: [Glu9,Leu14,Phe25,Tyr13]Exendin-4(1-27)-Peg3-[Leu2]Gastrin4 (peptide)
# peptide: HGEGTFTSELSKYLEEEAVRLFIEFLK[Peg3]WLDF-NH2
# B16: Side chain-cyclo([Lys20,Glu24]Exendin-4(1-28)-Peg3-Peg3-[Leu4]Gastrin6 (peptide)
# peptide: HGEGTFTSDLSKQMEEEAVKLFIEWLKN[Peg3][Peg3]YGWLDF-NH2
# modifications: lactam 20-24
# B17: [Tyr13]Exendin-4(1-28)-Peg3-Peg3-[Leu4]Gastrin6 (peptide)
# peptide: HGEGTFTSDLSKYMEEEAVRLFIEWLKN[Peg3][Peg3]YGWLDF-NH2
# B18: [Arg12,Leu14,Phe25,Tyr13]Exendin-4(1-27)-Peg3-[Leu4]Gastrin6 (peptide)
# peptide: HGEGTFTSDLSRYLEEEAVRLFIEFLK[Peg3]YGWLDF-NH2
# B19: [Arg12,27,Leu14,Lys16,Phe25,Tyr13]Exendin-4(1-27)-Peg3-[Leu4]Gastrin6 (peptide)
# peptide: HGEGTFTSDLSRYLEKEAVRLFIEFLR[Peg3]YGWLDF-NH2
# B20: [Arg12,27,Leu14,Lys24,Phe25,Tyr13]Exendin-4(1-27)-Peg3-[Leu4]Gastrin6 (peptide)
# peptide: HGEGTFTSDLSRYLEEEAVRLFIKFLR[Peg3]YGWLDF-NH2
# B21: [Glu9,Leu14,Phe25,Tyr13]Exendin-4(1-27)-[Leu4]Gastrin6 (peptide)
# peptide: HGEGTFTSELSKYLEEEAVRLFIEFLKYGWLDF-NH2
# B22: [Glu9,Leu14,Phe25,Tyr13]Exendin-4(1-27)-[Leu2]Gastrin4 (peptide)
# peptide: HGEGTFTSELSKYLEEEAVRLFIEFLKWLDF-NH2
# B23: [Glu9,Leu14,Phe25,Tyr13]Exendin-4(1-27)-Peg3-Peg3-[Leu4,Phe3]Gastrin6 (peptide)
# peptide: HGEGTFTSELSKYLEEEAVRLFIEFLK[Peg3][Peg3]YGFLDF-NH2
# B24: [Tyr13,Leu14,Phe25]Exendin-4(1-27)-Peg3-Peg3-[Leu4]Gastrin6 (peptide)
# peptide: HGEGTFTSDLSKYLEEEAVRLFIEFLK[Peg3][Peg3]YGWLDF-NH2
# B25: [Leu14,Phe25]Exendin-4(1-27)-Peg3-Peg3-[Leu4]Gastrin6 (peptide)
# peptide: HGEGTFTSDLSKQLEEEAVRLFIEFLKXXYGWLDF
# modifications: Peg3-Peg3 linker; C-terminal amide
# B26: [Glu9,Leu14,Phe25,Tyr13]Exendin-4(1-27)-Orn-Orn-[Leu4]Gastrin6 (peptide)
# peptide: HGEGTFTSELSKYLEEEAVRLFIEFLK[Orn][Orn]YGWLDF-NH2
# modifications: N-terminus assumed
# SMILES: CC[C@H](C)[C@H](NC(=O)[C@H](Cc1ccccc1)NC(=O)[C@H](CC(C)C)NC(=O)[C@H](CCCNC(=N)N)NC(=O)[C@@H](NC(=O)[C@H](C)NC(=O)[C@H](CCC(=O)O)NC(=O)[C@H](CCC(=O)O)NC(=O)[C@H](CCC(=O)O)NC(=O)[C@H](CC(C)C)NC(=O)[C@H](Cc1ccc(O)cc1)NC(=O)[C@H](CCCCN)NC(=O)[C@H](CO)NC(=O)[C@H](CC(C)C)NC(=O)[C@H](CCC(=O)O)NC(=O)[C@H](CO)NC(=O)[C@@H](NC(=O)[C@H](Cc1ccccc1)NC(=O)[C@@H](NC(=O)CNC(=O)[C@H](CCC(=O)O)NC(=O)CNC(=O)[C@@H](N)Cc1c[nH]cn1)[C@@H](C)O)[C@@H](C)O)C(C)C)C(=O)N[C@@H](CCC(=O)O)C(=O)N[C@@H](Cc1ccccc1)C(=O)N[C@@H](CC(C)C)C(=O)N[C@@H](CCCCN)C(=O)N[C@@H](CCCN)C(=O)N[C@@H](CCCN)C(=O)N[C@@H](Cc1ccc(O)cc1)C(=O)NCC(=O)N[C@@H](Cc1c[nH]c2ccccc12)C(=O)N[C@@H](CC(C)C)C(=O)N[C@@H](CC(=O)O)C(=O)N[C@@H](Cc1ccccc1)C(N)=O
# B27: [Arg12,27,Leu14,Lys20,Phe25,Tyr13]Exendin-4(1-27)-Peg3-[Leu4]Gastrin6 (peptide)
# peptide: HGEGTFTSDLSRYLEEEAVKLFIEFLR[Peg3]YGWLDF-NH2
# B28: [Asp28]Exendin-4(1-28)-Peg3-Peg3-[Leu4]Gastrin6 (peptide)
# peptide: HGEGTFTSDLSKQMEEEAVRLFIEWLKDXXYGWLDF
# modifications: Peg3-Peg3 linker; C-terminal amide
# B29: [Tyr13,Leu14]Exendin-4(1-27)-Peg3-Peg3-[Leu4]Gastrin6 (peptide)
# peptide: HGEGTFTSDLSKYLEEEAVRLFIEWLK[Peg3][Peg3]YGWLDF-NH2
# B30: Side chain-cyclo([Glu16,Lys20]Exendin-4(1-28)-Peg3-Peg3-[Leu4]Gastrin6 (peptide)
# peptide: HGEGTFTSDLSKQMEEEAVKLFIEWLKN[Peg3][Peg3]YGWLDF-NH2
# modifications: lactam 16-20
# B31: [Tyr13,Phe25]Exendin-4(1-27)-Peg3-Peg3-[Leu4]Gastrin6 (peptide)
# peptide: HGEGTFTSDLSKYMEEEAVRLFIEFLK[Peg3][Peg3]YGWLDF-NH2
# B32: [Leu14]Exendin-4(1-28)-[Leu4,[3-(3-Pyridyl)-Ala]6]Gastrin6 (peptide)
# peptide: B4 peptide with M14L, T32L, F34X
# modifications: 3-(3-Pyridyl)-alanine at position 6 of the Gastrin6 moiety; C-terminal amide
# B33: [Leu14,Phe25,Tyr13]Exendin-4(1-27)-Peg3-Peg3-[Leu4,Phe3]Gastrin6 (peptide)
# peptide: HGEGTFTSDLSKYLEEEAVRLFIEFLK[Peg3][Peg3]YGFLDF-NH2
# B34: [Glu9,Leu14,Phe25,Tyr13]Exendin-4(1-27)-Peg3-[Leu4]Gastrin6 (peptide)
# peptide: HGEGTFTSELSKYLEEEAVRLFIEFLK[Peg3]YGWLDF-NH2
# Target: human GLP-1 receptor (human, UniProt P43220 24-463)
# Assay: cell-based or functional assay
row,Binder,hGLP-1 R EC50 (cAMP)
1,B1,0.11 nM
2,B2,0.038 nM
3,B3,0.1 nM
4,B4,0.044 nM
5,B5,0.061 nM
6,B6,0.052 nM
7,B7,0.04 nM
8,B8,0.044 nM
9,B9,0.046 nM
10,B10,0.087 nM
11,B11,0.068 nM
12,B12,0.12 nM
13,B13,0.041 nM
14,B14,0.046 nM
15,B15,0.06 nM
16,B16,0.032 nM

row,Binder,hGLP-1 R EC50 (cAMP)
1,B17,0.046 nM
2,B18,0.079 nM
3,B19,0.17 nM
4,B20,0.13 nM
5,B21,0.11 nM
6,B22,1.2 nM
7,B23,0.032 nM
8,B24,0.044 nM
9,B25,0.026 nM
10,B26,0.11 nM
11,B27,0.058 nM
12,B28,0.061 nM
13,B29,0.05 nM
14,B30,0.026 nM
15,B31,0.035 nM

# Target: T1, human CCK-B receptor
# Assay: cell-based or functional assay
row,Binder,hCCK-B R EC50 (p-ERK)
1,B1,860 nM
2,B2,15 nM
3,B3,4.3 nM
4,B4,58 nM
5,B32,20 nM
6,B5,14 nM
7,B6,24 nM
8,B7,270 nM
9,B8,140 nM
10,B33,1200 nM
11,B9,10 nM
12,B10,8.8 nM
13,B11,18 nM
14,B12,100 nM
15,B13,51 nM
16,B14,20 nM

row,Binder,hCCK-B R EC50 (p-ERK)
1,B15,13 nM
2,B16,4 nM
3,B17,12 nM
4,B18,14 nM
5,B19,26 nM
6,B20,36 nM
7,B21,30 nM
8,B22,211 nM
9,B23,1300 nM
10,B25,7.9 nM
11,B26,16 nM
12,B27,26 nM
13,B28,3.3 nM
14,B29,8.4 nM
15,B31,8.4 nM
16,B34,54 nM
